Positions of bridges follow the written chain, without caps; N, C: chain ends. Non-standard residues stand in square brackets, D forms with d. No end group written: not given here. *: point of attachment. Fck = HO-CH2-(CHOH)4-C=N-O-CH2-CO- (oxime-linked sugar acyl cap); Phe(F5) = N[C@@H](Cc1c(F)c(F)c(F)c(F)c1F)C(=O)O; Fbo = morpholine-4-carbonyl, O=C(N1CCOCC1)*; d(hLeu) = CC(C)CC[C@@H](N)C(=O)O; αMeF = C[C@](N)(Cc1ccccc1)C(=O)O; dCha = N[C@H](CC1CCCCC1)C(=O)O; Nle = CCCC[C@H](N)C(=O)O; Orn = NCCC[C@H](N)C(=O)O; Aze = O=C(O)[C@@H]1CCN1; Fbn = not defined here
T1: human C5aR (CD88) (human, UniProt P21730 1-350)
T1 sequence (looked up): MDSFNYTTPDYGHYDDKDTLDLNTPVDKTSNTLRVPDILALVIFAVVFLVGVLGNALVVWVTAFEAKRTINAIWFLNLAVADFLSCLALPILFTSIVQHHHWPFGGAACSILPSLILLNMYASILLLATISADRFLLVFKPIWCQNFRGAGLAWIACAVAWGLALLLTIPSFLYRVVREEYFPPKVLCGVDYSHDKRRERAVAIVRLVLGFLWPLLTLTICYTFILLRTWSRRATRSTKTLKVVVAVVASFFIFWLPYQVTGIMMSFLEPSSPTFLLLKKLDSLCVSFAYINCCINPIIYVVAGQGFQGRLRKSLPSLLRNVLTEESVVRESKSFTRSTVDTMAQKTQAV

B1: H-Amf-[Orn-Aze-hle-Pff-Nle] (peptide)
peptide: H-[αMeF][Orn][Aze][d(hLeu)][Phe(F5)][Nle]
modifications: lactam 2-C
SMILES: CCCC[C@@H]1NC(=O)[C@H](Cc2c(F)c(F)c(F)c(F)c2F)NC(=O)[C@@H](CCC(C)C)NC(=O)[C@@H]2CCN2C(=O)[C@@H](NC(=O)[C@@](C)(N)Cc2ccccc2)CCCNC1=O
B2: Fck-[Phe-Orn-Pro-cha-Trp-Nle] (peptide)
peptide: Fck-F[Orn]P[dCha]W[Nle]
modifications: bridge (positions not given here); not fully specified; printed as Fck-[Phe-Orn-Pro-cha-Trp-Nle]; also: cyclic [1-6], linkage not given here

target: T1, human C5aR (CD88); test: cell-based or functional assay

Row | IC50 activity group, enzyme release assay [nM] | EC50, agonistic activity, enzyme release assay [nM] | IC50, functional assay [nM] | Molecule
1 | < 2000 |  |  | Ac-Phe-Paf-Pro-cha-Bta-Phe-NH2 (peptide)
2 | < 200 |  |  | Ac-Phe-[Orn-Asn-cha-Trp-Nle] (peptide)
3 | < 200 |  |  | Ac-Phe-[Orn-Aze-cha-Trp-Nle] (peptide)
4 | < 200 |  |  | Ac-Phe-[Orn-Chy-cha-Trp-Nle] (peptide)
5 | < 200 |  |  | Ac-Phe-[Orn-HyA-cha-Trp-Phe] (peptide)
6 | < 200 |  |  | Ac-Phe-[Orn-Hyp(COCH2OCH2CH2OCH2CH2OCH3)-cha-Trp-Nle] (peptide)
7 | < 200 |  |  | Ac-Phe-[Orn-Hyp(CONH-CH2CH(OH)-CH2OH)-cha-Trp-Nle] (peptide)
8 | < 200 |  |  | Ac-Phe-[Orn-Hyp-Mmf-Trp-Nle] (peptide)
9 | < 200 |  |  | Ac-Phe-[Orn-Hyp-Mmf-Trp-Phe] (peptide)
10 | < 20 |  |  | Ac-Phe-[Orn-Hyp-cha-Trp-Nle] (peptide)
11 | < 50 | > 1430 |  | Ac-Phe-[Orn-Hyp-cha-Trp-Phe] (peptide)
12 | < 200 |  |  | Ac-Phe-[Orn-Hyp-hle-Bta-Phe] (peptide)
13 | < 200 |  |  | Ac-Phe-[Orn-Hyp-hle-Mcf-Phe] (peptide)
14 | < 200 |  |  | Ac-Phe-[Orn-Hyp-hle-Pff-Nle] (peptide)
15 | < 200 |  |  | Ac-Phe-[Orn-Hyp-hle-Pff-Phe] (peptide)
16 | < 50 |  |  | Ac-Phe-[Orn-Hyp-hle-Trp-Phe] (peptide)
17 | < 200 |  |  | Ac-Phe-[Orn-NMD-cha-Trp-Nle] (peptide)
18 | < 50 |  | 25 | Ac-Phe-[Orn-NMeAla-cha-Trp-Arg] (peptide)
19 | < 200 |  |  | Ac-Phe-[Orn-Pip-hle-Bta-Phe] (peptide)
20 | < 200 |  |  | Ac-Phe-[Orn-Pro-cha-Pff-Nle] (peptide)
21 | < 200 |  |  | Ac-Phe-[Orn-Pro-cha-Pff-Phe] (peptide)
22 | < 200 |  |  | Ac-Phe-[Orn-Pro-hle-Bta-Nle] (peptide)
23 | < 200 |  |  | Ac-Phe-[Orn-Pro-hle-Bta-Phe] (peptide)
24 | < 200 |  |  | Ac-Phe-[Orn-Pro-hle-Pff-Phe] (peptide)
25 | < 200 |  |  | Ac-Phe-[Orn-Ser-cha-Trp-Nle] (peptide)
26 | < 200 |  |  | Ac-Phe-[Orn-Ser-hle-Trp-Nle] (peptide)
27 | < 200 |  |  | Ac-Phe-[Orn-Thr-cha-Trp-Nle] (peptide)

Row | IC50 activity group, enzyme release assay [nM] | EC50, agonistic activity, enzyme release assay [nM] | IC50, functional assay [nM] | Molecule
28 | < 200 |  |  | Ac-Phe-[Orn-Tic-cha-Trp-Nle] (peptide)
29 | < 200 |  |  | Ac-Phg-Orn-Pro-cha-Bta-Phe-NH2 (peptide)
30 | < 20 |  |  | Ac-Ser-Phe-Orn-Aze-cha-Bta-Phe-NH2 (peptide)
31 | < 20 |  |  | Ac-Thi-Orn-Aze-cha-Bta-Phe-NH2 (peptide)
32 | < 50 | > 100000 |  | Ac-Thi-Orn-Pip-cha-Bta-Phe-NH2 (peptide)
33 | < 50 |  |  | Ac-Thi-Orn-Pro-cha-Bta-Phe-NH2 (peptide)
34 | < 50 |  |  | Ac-Thi-Orn-Pro-cha-Bta-Thi-NH2 (peptide)
35 | < 200 |  |  | Ac-Thi-Orn-Pro-cha-Trp-Phe-NH2 (peptide)
36 | < 200 |  |  | Ac-Thi-[Orn-Pro-hle-Bta-Phe] (peptide)
37 | < 50 |  |  | Ac-Thr-Phe-Orn-Aze-cha-Bta-Phe-NH2 (peptide)
38 | < 200 |  |  | Bzl-[Orn-Pro-cha-Bta-Nle] (peptide)
39 | < 50 |  |  | CH3-SO2-Phe-Orn-Aze-cha-Bta-Phe-NH2 (peptide)
40 | < 50 |  |  | CH3CH2CO-Phe-Orn-Pro-cha-Bta-Phe-NH2 (peptide)
41 | < 50 |  |  | FAc-Phe-Orn-Aze-cha-Bta-Phe-NH2 (peptide)
42 | < 50 |  |  | FAc-Phe-Orn-Pro-cha-Bta-Phe-NH2 (peptide)
43 | < 50 |  |  | FH2C-CO-Phe-Orn-Pro-cha-Bta-Phe-NH2 (peptide)
44 | < 50 |  |  | H2N-CO-Phe-Orn-Pro-cha-Bta-Phe-NH2 (peptide)
45 | < 200 |  |  | H-Bal-Phe-[Orn-Hyp-hle-Trp-Nle] (peptide)
46 | < 200 |  |  | H-Bal-Phe-[Orn-Pro-hle-Pff-Nle] (peptide)
47 | < 200 |  |  | H-Nip-Phe-Cit-Pro-hle-Bta-Phe-NH2 (peptide)
48 | < 200 |  |  | H-Phe-Cit-Pro-hle-Bta-Phe-NH2 (peptide)
49 | < 200 |  |  | H-Phe-[Lys-Hyp-hle-Pff-Nle] (peptide)
50 | < 50 |  |  | H-Phe-[Orn-Hyp-cha-Trp-Nle] (peptide)
51 | < 50 |  |  | H-Phe-[Orn-Hyp-cha-Trp-Phe] (peptide)
52 | < 200 |  |  | H-Phe-[Orn-Hyp-hle-Mcf-Leu] (peptide)
53 | < 200 |  |  | H-Phe-[Orn-Hyp-hle-Pff-Chg] (peptide)
54 | < 200 |  |  | H-Phe-[Orn-Hyp-hle-Pff-Hle] (peptide)

Row | IC50 activity group, enzyme release assay [nM] | EC50, agonistic activity, enzyme release assay [nM] | IC50, functional assay [nM] | Molecule
55 | < 200 |  |  | H-Phe-[Orn-Hyp-hle-Pff-Leu] (peptide)
56 | < 200 |  |  | H-Phe-[Orn-Hyp-hle-Pff-Nle] (peptide)
57 | < 200 |  |  | H-Phe-[Orn-Hyp-hle-Pff-Phe] (peptide)
58 | < 200 |  |  | H-Phe-[Orn-Hyp-hle-Trp-Hle] (peptide)
59 | < 50 |  |  | H-Phe-[Orn-Hyp-hle-Trp-Leu] (peptide)
60 | < 50 |  |  | H-Phe-[Orn-Hyp-hle-Trp-Nle] (peptide)
61 | < 200 |  |  | H-Phe-[Orn-Hyp-hle-Trp-Nva] (peptide)
62 | < 50 |  |  | H-Phe-[Orn-Hyp-hle-Trp-Phe] (peptide)
63 | < 200 |  |  | H-Phe-[Orn-NMS-cha-Trp-Nle] (peptide)
64 | < 200 |  |  | H-Phe-[Orn-NMS-hle-Pff-Phe] (peptide)
65 | < 200 |  |  | H-Phe-[Orn-Pro-cha-Pff-Nle] (peptide)
66 | < 200 |  |  | H-Phe-[Orn-Pro-cha-Pff-Phe] (peptide)
67 | < 50 |  |  | H-Phe-[Orn-Pro-hle-Mcf-Phe] (peptide)
68 | < 200 |  |  | H-Phe-[Orn-Pro-hle-Ocf-Phe] (peptide)
69 | < 200 |  |  | H-Phe-[Orn-Pro-hle-Pff-Nle] (peptide)
70 | < 50 |  |  | H-Phe-[Orn-Pro-hle-Pff-Phe] (peptide)
71 | < 50 | > 1430 |  | H-Phe-[Orn-Ser-cha-Trp-Nle] (peptide)
72 | < 200 |  |  | H-Phe-[Orn-Ser-hle-Mcf-Leu] (peptide)
73 | < 200 |  |  | H-Phe-[Orn-Ser-hle-Ocf-Nle] (peptide)
74 | < 200 |  |  | H-Phe-[Orn-Ser-hle-Pff-Leu] (peptide)
75 | < 50 |  |  | H-Phe-[Orn-Ser-hle-Pff-Nle] (peptide)
76 | < 200 |  |  | H-Phe-[Orn-Ser-hle-Pff-Phe] (peptide)
77 | < 50 |  |  | H-Phe-[Orn-Ser-hle-Trp-Nle] (peptide)
78 | < 200 |  |  | Me-O-CO-Phe-Orn-Pro-cha-Bta-Phe-NH2 (peptide)
79 |  | 2.4 |  | hrC5a (from UniProt P01031 678-751) (ligand)
80 | < 200 |  |  | tBu-CO-Phe-Orn-Pro-cha-Bta-Phe-NH2 (peptide)

target: T1, human C5aR (CD88); test: cell-based or functional assay; remark: another data set of the same source

Row | IC50 activity group, enzyme release assay [nM] | Molecule
81 | ≤ 200 | Fbn-F[Orn]P[dCha]W[Nle] (lactam 2-C; reading uncertain; also: printed as Fbn-Phe-[Orn-Pro-cha-Trp-Nle]) [Fbn-Phe-[Orn-Pro-cha-Trp-Nle]]
82 | ≤ 200 | B1
83 | ≤ 200 | Fbo-F[Orn]P[dCha]W[Nle] (lactam 2-C (inferred)) [Fbo-Phe-[Orn-Pro-cha-Trp-Nle]]
84 | ≤ 2000 | FXPXWX (not fully specified; Ac-; Orn2; cha4 (D); Eew6; cyclic [2-6]) [Ac-Phe-[Orn-Pro-cha-Trp-Eew]]
85 | ≤ 200 | Fck-F[Orn]P[dCha]W[Nle] (lactam 2-C (inferred)) [Fck-Phe-[Orn-Pro-cha-Trp-Nle]]
86 | ≤ 200 | B2
